Measured values taken from paper PMC1420652, “Purified Wnt5a Protein Activates or Inhibits β-Catenin–TCF Signaling Depending on Receptor Context” (PLoS Biology, 2006).

Target: T1, purified Wnt5a protein (mouse) (mouse, UniProt P22725 62-380)
T1 construct: Wnt5a, mouse; The protein needs detergent to stay in solution; also called mWnt5a
T1 sequence (looked up): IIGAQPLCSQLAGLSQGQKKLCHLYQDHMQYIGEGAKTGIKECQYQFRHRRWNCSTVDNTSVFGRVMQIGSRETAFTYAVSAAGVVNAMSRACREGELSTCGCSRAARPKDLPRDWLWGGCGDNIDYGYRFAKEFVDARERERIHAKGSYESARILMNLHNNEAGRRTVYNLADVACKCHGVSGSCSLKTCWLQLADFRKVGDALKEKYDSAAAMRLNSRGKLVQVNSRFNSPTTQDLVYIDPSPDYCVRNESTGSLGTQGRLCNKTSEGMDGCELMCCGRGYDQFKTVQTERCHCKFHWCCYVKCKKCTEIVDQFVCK
Test: pull-down; purified CRD-IgG proteins bound to protein A-Sepharose beads (4 h, 4 °C), incubated overnight at 4 °C with purified Wnt5a protein, washed 4 times with TNT buffer (50 mM Tris-HCl, 150 mM NaCl, 1% Triton X-100), Western blot
Settings: both partners purified

Binder | binding result
mRor2 NT CRD-IgG (Fc fusion, signal peptide in the construct; source: 293 cells stably secreting the protein, purified from serum-free conditioned media (protein A column); not shown: immunoglobulin heavy chain domain (IgG), C-terminal, kept) not shown | binds
mRor2 CRD-IgG (Fc fusion, source: 293 cells stably secreting the protein, purified from serum-free conditioned media (protein A column); not shown: immunoglobulin heavy chain domain (IgG), C-terminal, kept) not shown | binds
